Experimental data published in the supplement of paper PMC10567573.

B1: ESRRA (parent)
chain: SLPLQDELAFAEDLVLDEEGARAA

Variants of: B1
Test: protein stability index of a GFP-peptide fusion (GPS, HEK-293T) (PSI 1-6); higher = more stable
Details: c terminus: a fixed tail appended
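Note: lentivirally expressed fusions sorted by FACS into six bins by GFP to DsRed ratio, PSI derived from sequencing read proportions per bin multiplied by bin number.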

Protein stability index: each site, then its substitutions
R22: F 3.24 | H 3.65 | N 3.36 | S 3.62 | L 3.73 | I 2.94 | K 3.12 | T 4.45 | G 3.13 | C 3.2 | P 3.01 | E 4.36 | A 3.35 | Y 3.01
A11: K 4.98 | D 5.57 | W 3.02 | N 5.7 | C 5.35 | S 4.13 | R 5.65 | F 4.89 | M 5.4 | T 4.23 | L 4.97 | P 5.53 | I 4.73 | G 5.17 | H 5.54
L2: K 4.4 | S 4.21 | T 3.52 | M 3.48 | Y 3.22 | G 4.81 | I 2.78 | N 3.86 | D 5.55 | V 3.26 | P 4.27 | A 4.07 | W 2.69 | Q 3.95 | E 5.29
S1: M 2.66 | I 3.03 | Y 2.78 | K 3.09 | D 3.07 | L 2.26 | F 2.48 | W 2.73 | H 2.89 | A 3.94 | E 2.94 | C 2.93
L14: K 4.89 | I 4.3 | P 5.8 | G 5.57 | H 5.42 | N 5.38 | Y 5.32 | E 4.62 | R 4.2 | V 4.41 | F 5.22 | A 4.45 | D 5.5 | Q 3.5 | C 3.46
D13: R 3.68 | S 3.37 | C 2.31 | K 3.81 | T 3.71 | G 2.44 | Q 3.68 | W 3.31 | V 1.85 | P 5.46 | A 3.48 | E 2.92 | L 2.68 | Y 2.64 | M 3.83 | N 2.79 | I 1.96
A9: L 3.45 | S 3.42 | P 5.74 | G 4.01 | F 4.56 | C 4.11 | T 2.63 | K 2.63
D6: W 2.78 | Y 2.02 | I 2.26 | L 3.26 | Q 2.91 | N 2.92 | H 2.45 | M 3.77 | V 2.5 | P 4.04 | A 3.27 | K 2.81 | S 3.25
P3: M 4.18 | N 4.08 | H 4.45 | D 4.14 | F 4.6 | S 5.28 | Y 4.61 | T 4.8 | L 4.84 | W 4.32 | C 4.78 | R 4.46 | A 4.97
L16: D 5.66 | A 3.83 | F 3.7 | H 3.6 | C 3.63 | T 4.72 | N 4.59 | P 5.75 | V 4.15 | Y 2.44 | K 3.24 | M 3 | I 3.88 | W 3.23 | S 4.91
E18: A 2.7 | R 4.03 | W 2.49 | Q 2.8 | N 3.68 | H 2.56 | L 3.11 | V 3.6 | C 2.31 | Y 2.99 | K 4.48 | G 2.93 | P 2.56 | F 3.24 | S 2.85
Q5: H 3.66 | M 2.48 | G 4.43 | T 5.34 | W 2.29 | D 5.44 | K 2.79 | V 3.64 | I 3.37 | S 4.79 | R 3.37 | C 3.7 | Y 2.96 | P 4.94 | F 3.85 | N 3.77 | L 3.02 | A 3.25
A24: C 2.94 | S 2.82 | H 3.66 | G 3.22 | T 3.94 | V 3.06 | W 2.74 | F 2.14 | R 2.8 | Y 3 | K 2.96 | Q 3.05 | D 3.71 | M 2.97 | I 2.92
G20: W 2.67 | A 4.48 | R 3.38 | Y 2.44 | F 3.47 | M 2.51 | P 3.7 | H 2.9 | N 3.52 | S 4.04 | V 4 | Q 3.93 | L 3.04 | D 3.46 | E 5.11
F10: I 3.63 | T 3.77 | N 4.03 | D 4.18 | S 3.04 | Q 3.98 | K 2.83 | A 4.18 | R 3.57 | C 3.36 | M 2.52 | Y 3.54 | L 2.5 | P 5.69
A21: P 3.14 | T 3.75 | S 4.05 | L 3.63 | V 3.14 | F 3.5 | K 2.66 | M 3.61 | R 3.41 | Q 2.29 | W 3.2 | D 3.81
E12: D 5.35 | P 5.03 | V 4.82 | Y 4.2 | K 5.28 | S 5.26 | Q 4.71 | H 4.72 | W 5.05 | F 4.52 | R 4.36 | T 5.41 | A 5 | L 4.42 | M 4.88
E7: M 3.26 | I 2.46 | P 5.58 | A 2.41 | G 5.2 | T 4.4 | K 4.84 | F 3.92 | N 4.51
L8: N 5.54 | A 5.07 | S 5.63 | P 5.3 | G 5.2 | C 5.51 | D 5.43 | R 5.66 | F 5.13 | M 2.99 | I 5.34 | V 5.84 | T 4.84 | E 5.55
L4: E 5.59 | F 4.96 | Q 5.64 | S 5.39 | V 5.02 | I 4.43 | D 4.97 | T 5.43 | Y 5.26 | M 3.51 | C 5.1 | W 5.32 | R 5.1
E19: M 1.85 | Q 2.56 | V 2.83 | P 4.02 | D 2.79 | W 2.52 | A 1.86 | L 2.15 | Y 2.77 | G 1.75 | I 1.74 | N 2.63 | F 2.25 | K 2.89
D17: E 3.7 | L 2.71 | V 3.19 | H 3.47 | W 2.62 | Q 3.31 | I 2.45 | T 3.57 | N 2.86 | R 3.13 | Y 2.5 | G 2.15 | C 2.78
A23: W 2.44 | V 3.21 | I 2.87 | L 2.56 | N 3.21 | H 2.95 | K 2.65 | C 2.98 | M 2.43 | S 3.42 | T 3.08 | E 3.66 | D 3.39 | G 4.15 | F 2.89
V15: I 3.18 | Q 5.49 | D 4.89 | K 5.57 | T 5.28 | G 5.55 | R 5.42 | H 5.45 | A 4.6 | Y 5.25 | N 5.68 | P 5.37 | M 4.79 | F 5.55 | E 5.82
